Data taken from patent US9012407B2, “Therapies which act on neuropeptide S receptors” (The Regents of the University of California, priority 2004, dated 2015).
Values belong to the molecule of their own block, whether it stands above or below them. Where no end group is shown, it is not given here. The star is where a group is joined. 125I = radioactive iodine-125 label on the tyrosine, [125I]*

How the values were obtained:
human NPSR = target: T1, human NPSR (Homo sapiens, UniProt Q6W5P4); assay: Mobilization of intracellular Ca2+ (FLIPR) in HEK 293T cells stably expressing human NPSR; format: cell-based; details: for EC50: HEK 293T cells stably expressing human NPSR, read-out: EC50 for mobilization of [Ca2+]i
T1 construct: This receptor protein is identical to the NPSR that we have studied extensively for its pharmacology; expressed in transfected cells
T1 sequence (Q6W5P4 1-371): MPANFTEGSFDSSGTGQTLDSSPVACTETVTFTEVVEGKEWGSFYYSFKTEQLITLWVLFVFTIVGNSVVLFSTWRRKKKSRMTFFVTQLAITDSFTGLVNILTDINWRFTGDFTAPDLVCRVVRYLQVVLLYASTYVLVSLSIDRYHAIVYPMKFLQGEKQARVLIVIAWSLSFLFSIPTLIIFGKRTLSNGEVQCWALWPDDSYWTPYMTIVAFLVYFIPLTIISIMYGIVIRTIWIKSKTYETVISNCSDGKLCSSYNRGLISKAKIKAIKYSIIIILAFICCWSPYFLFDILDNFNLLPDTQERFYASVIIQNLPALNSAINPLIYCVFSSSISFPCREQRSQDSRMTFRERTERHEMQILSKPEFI
Protocol: Cell lines stably expressing human NPSR in both Chinese hamster ovary (CHO) cells and human embryonic kidney 293 T cells (HEK 293T) were used to define the pharmacological characteristics of NPS. […] HEK 293T cells and CHO dhfr(−) cells were transfected with the human NPSR cDNA cloned into pcDNA 3.1(+) using LipofectAmine. Stable clones were selected with 800 mg/l G418 and tested for mobilization of intracellular Ca^2+ with 100 nM NPS (generous gift of Phoenix Pharmaceuticals, Belmont, Calif.). Changes in intracellular Ca^2+ were measured in a fluorometric imaging plate reader system (FLIPR, Molecular Devices) as described before(Saito et al., 1999). Dose response curves for agonist activation were calculated from peak fluorescence values of triplicate incubations and EC50 values were calculated with Prism software (GraphPad, San Diego, Calif.).

rodents = details: cited from earlier work
[1] = single i.c.v. injection; cited from earlier work
NPSR WT = target: T2, NPSR WT (Homo sapiens, UniProt Q6W5P4); assay: Intracellular Ca2+ mobilization (FLIPR) in HEK 293 cells stably expressing NPSR WT; format: cell-based; details: for agonist activity, Ca2+ mobilization: individual HEK 293 clone; for agonist potency compared to the human peptide: Ca2+ mobilization
T2 construct: The primary structure of the wildtype NPSR (NPSR WT) is identical to isoform A of GPRA; expressed in transfected cells
T2 sequence (Q6W5P4 1-371): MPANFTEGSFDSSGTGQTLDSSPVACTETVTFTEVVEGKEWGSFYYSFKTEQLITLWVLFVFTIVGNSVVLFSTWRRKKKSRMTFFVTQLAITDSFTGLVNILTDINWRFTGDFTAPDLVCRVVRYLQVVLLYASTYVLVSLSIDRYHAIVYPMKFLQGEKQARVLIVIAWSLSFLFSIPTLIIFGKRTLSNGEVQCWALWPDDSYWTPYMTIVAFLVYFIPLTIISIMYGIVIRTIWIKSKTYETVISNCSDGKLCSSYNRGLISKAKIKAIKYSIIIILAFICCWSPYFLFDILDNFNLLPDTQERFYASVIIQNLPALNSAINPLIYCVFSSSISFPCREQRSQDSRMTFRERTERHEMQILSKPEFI
Protocol: (§1) Changes of agonist-induced intracellular Ca^2+ were measured using the FLIPR technology as described before (5, 6). NPS and truncated NPS peptides were a gift from Phoenix Pharmaceuticals (Belmont, Calif.). Dose-response curves were calculated using GraphPad Prism (Graph Pad, San Diego). Mean EC50 values of populations of stable clones expressing either wildtype or mutant NPSR were compared using unpaired t-test and p<0.05 was considered significant.
(§2) Two cells lines expressing similar levels (measured by radioligand binding; see below) of either NPSR WT or NPSR Ile were chosen for detailed analyses of pharmacological parameters. […] In order to investigate whether this tenfold increase in agonist potency at NPSR lie was a general property of the receptor protein we compared a large number of stable clones expressing either NPSR WT or NPSR Ile^107 by establishing dose-response curves for each construct and calculating mean EC50 values for the populations.

NPSR Ile^107 = target: T3, NPSR Ile^107 (Homo sapiens, UniProt Q6W5P4, N107I); assay: Intracellular Ca2+ mobilization (FLIPR) in HEK 293 cells stably expressing NPSR Ile107; format: cell-based; details: for agonist activity, Ca2+ mobilization: individual HEK 293 clone; for agonist potency compared to the human peptide: Ca2+ mobilization
T3 construct: The Ile^107 isoform of NPSR was generated by PCR using synthetic oligonucleotides and the Quik Change Site-Directed Mutagenesis kit from Stratagene; expressed in transfected cells
T3 sequence (Q6W5P4 1-371 N107I): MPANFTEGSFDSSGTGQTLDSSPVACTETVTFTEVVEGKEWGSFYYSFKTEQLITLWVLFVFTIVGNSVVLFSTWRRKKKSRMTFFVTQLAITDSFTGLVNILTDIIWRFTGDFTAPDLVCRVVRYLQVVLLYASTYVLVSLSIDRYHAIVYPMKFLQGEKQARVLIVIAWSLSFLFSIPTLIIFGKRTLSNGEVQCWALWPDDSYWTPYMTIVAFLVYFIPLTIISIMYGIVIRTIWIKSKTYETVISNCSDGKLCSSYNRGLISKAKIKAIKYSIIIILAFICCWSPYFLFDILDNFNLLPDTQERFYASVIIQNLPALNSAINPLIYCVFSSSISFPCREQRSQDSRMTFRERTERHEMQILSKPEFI
Protocol: as §1, §2

[2] = target: human Neuropeptide S receptor, wildtype (NPSR WT) (human) (UniProt Q6W5P4); assay: cell-based or functional assay
[3] = target: T4, human Neuropeptide S receptor, wildtype (NPSR WT) (human, UniProt Q6W5P4 1-371); assay: saturation binding of [125I] Y10-NPS to stable clones, intact cells, average of n=4 clones
T4 construct: Stably expressed in CHO dhfr(-), HEK 293T or HEK 293 cells; also called hNPSR; human NPSR
T4 sequence: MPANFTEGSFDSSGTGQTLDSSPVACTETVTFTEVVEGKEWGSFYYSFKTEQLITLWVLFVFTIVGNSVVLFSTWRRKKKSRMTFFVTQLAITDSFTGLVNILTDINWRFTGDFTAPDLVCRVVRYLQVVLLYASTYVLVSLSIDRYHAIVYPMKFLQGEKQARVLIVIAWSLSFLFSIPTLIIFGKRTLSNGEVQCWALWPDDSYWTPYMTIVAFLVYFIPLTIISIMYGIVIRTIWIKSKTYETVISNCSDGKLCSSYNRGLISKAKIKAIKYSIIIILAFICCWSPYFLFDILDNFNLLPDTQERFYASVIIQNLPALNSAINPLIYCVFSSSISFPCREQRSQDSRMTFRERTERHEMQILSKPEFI

[4] = target: T5, human Neuropeptide S receptor Ile107 isoform (NPSR Ile107) (human, UniProt Q6W5P4 1-371); assay: as above
T5 construct: also called NPSR lie; Asn107Ile variant
T5 sequence: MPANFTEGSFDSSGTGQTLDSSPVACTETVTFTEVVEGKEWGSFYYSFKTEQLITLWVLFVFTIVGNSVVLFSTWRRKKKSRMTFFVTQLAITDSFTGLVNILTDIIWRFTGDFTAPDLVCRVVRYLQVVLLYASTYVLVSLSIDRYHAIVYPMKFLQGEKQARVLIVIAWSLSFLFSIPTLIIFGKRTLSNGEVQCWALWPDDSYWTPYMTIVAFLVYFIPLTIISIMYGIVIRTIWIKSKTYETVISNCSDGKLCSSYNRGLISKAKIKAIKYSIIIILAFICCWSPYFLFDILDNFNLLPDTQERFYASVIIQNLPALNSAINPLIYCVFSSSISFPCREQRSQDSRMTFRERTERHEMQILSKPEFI

[5] = target: T4, human Neuropeptide S receptor, wildtype …; assay: saturation binding of [125I] Y10-NPS to stable clones, intact cells
[6] = target: T5, human Neuropeptide S receptor Ile107 …; assay: as above
[7] = target: T4, human Neuropeptide S receptor, wildtype …; assay: saturation radioligand binding to intact CHO cells stably expressing hNPSR
Protocol: (§3) The monoiodinated form of Y^10-NPS was used as a radioligand in receptor binding experiments. […] No specific binding was detected in mock-transfected CHO cells.
(§4) CHO cells stably expressing human NPSR were seeded into 24-well plates and cultured for 48 hours. […] Nonspecific binding was determined in the presence of 1 µM unlabeled human NPS. The binding assay was carried out as described (Sakurai et al., 1998). In brief, cells were washed with PBS first and then incubated with radioligand with or without unlabeled NPS peptide in DMEM medium containing 0.1% bovine serum albumin at 20° C. for 1.5 h. Cells were washed 5 times with cold PBS and lysed with 1 N NaOH. Bound radioactivity was counted in a MicroBeta liquid scintillation counter (EG&G Wallac, Gaithersburg, Md.) and corrected for counting efficiency. Data from triplicate incubations were analyzed using PRISM.

[8] = target: T4, human Neuropeptide S receptor, wildtype …; assay: cell-based or functional assay
[9] = target: T5, human Neuropeptide S receptor Ile107 …; assay: cell-based or functional assay
[10] = target: T4, human Neuropeptide S receptor, wildtype …; assay: displacement of 0.15 nM [125I] Y10-NPS from CHO cells stably expressing hNPSR by unlabeled human NPS
Protocol: as §3, §4

[11] = target: human Neuropeptide S receptor C-terminal splice variant (NPSR C-alt) (human), Q6W5P4; assay: cell-based or functional assay

Molecule: H-SFRNGVGTGYKKTSFQRAKS-OH [Human Y^10-NPS]
agonist activity (human NPSR; human NPSR, Ca2+ mobilization): full agonist activity

Molecule: Hcrt/Ox: neuropeptide hypocretin 1/orexin A, literature comparison (QPLPDCCRQKTCSCRLYELLHGAGNHAAGILTL; ends and bridges not checked; cysteine pairing not given here; UniProt O43612 34-66, looked up)
effect on anxiety-like behavior (rodents): no effect | duration of arousal [1]: 2 to 3 h

Molecule: NPS 4-20: human NPS fragment with the three amino-terminal amino acids deleted (NGVGTGMKKTSFQRAKS)
agonist activity, Ca2+ mobilization (NPSR WT): completely abolished agonist activity | agonist activity, Ca2+ mobilization (NPSR Ile^107): completely abolished agonist activity

Molecule: SFRNGVGSGAKKTSFRRAKQ [mouse NPS]
EC50 (human NPSR): 3 ± 1.3 nM | agonist potency compared to the human peptide (NPSR WT): slightly more potent | agonist potency compared to the human peptide (NPSR Ile^107): slightly more potent

B1: [125I] Y10-hNPS (monoiodinated human Y10-NPS radioligand) (peptide)
peptide: SFRNGVGTGY(125I)KKTSFQRAKS
modifications: also: monoiodinated with 125I (chloramine T)
notes: Human NPS in which the residue at position 10 is replaced by tyrosine, then radioiodinated; also called Y10-NPS; the radioligand
Kd [3]: 0.347 nM | Kd [4]: 0.403 nM | Kd [5]: 0.2 to 0.45 nM | Kd [6]: 0.17 to 0.4 nM | Kd [7]: 0.33 nM

Further lines, with some results ahead:

agonist activity, Ca2+ mobilization (NPSR WT): full agonist activity | agonist activity, Ca2+ mobilization (NPSR Ile^107): full agonist activity
Molecule: NPS 1-10: human NPS fragment, residues 1-10, after deletion of the two lysines at positions 11 and 12 (SFRNGVGTGM)

antagonist activity against activation by NPS 1-20 (NPSR WT): failed to block activation | agonist activity, Ca2+ mobilization (NPSR WT): almost completely lost agonist activity | antagonist activity against activation by NPS 1-20 (NPSR Ile^107): failed to block activation | agonist activity, Ca2+ mobilization (NPSR Ile^107): full, but weakly potent, agonist
Molecule: NPS 1-12: carboxy-terminally truncated fragment of human NPS, residues 1-12 (SFRNGVGTGMKK)

EC50 (human NPSR): 3.2 ± 1.1 nM | agonist potency compared to the human peptide (NPSR WT): slightly more potent | agonist potency compared to the human peptide (NPSR Ile^107): slightly more potent
Molecule: SFRNGVGSGVKKTSFRRAKQ [rat NPS]

EC50 for mobilization of [Ca2+]i, HEK 293T cells stably expressing human NPSR [2]: 3 nM
Molecule: mouse Neuropeptide S (from UniProt P0C0P8 70-89)

EC50 for mobilization of [Ca2+]i, HEK 293T cells stably expressing human NPSR [2]: 3.2 nM
Molecule: rat Neuropeptide S (from UniProt P0C0P7 70-89)

EC50, CRE-luciferase reporter, transiently transfected HEK 293 cells [8]: 76.6 nM | EC50, MAPK phosphorylation, stable HEK cells [8]: 1.23 nM | EC50, cAMP accumulation, stable HEK clone [8]: 31.9 nM | EC50, increase in intracellular Ca2+ in cells stably expressing NPSR WT [8]: 5 to 10 nM | EC50, intracellular free Ca2+, single stable HEK 293 clone [8]: 12.4 nM | EC50 for mobilization of [Ca2+]i, HEK 293T cells stably expressing human NPSR [8]: 9.4 nM | mean EC50, NPS-induced CRE-luciferase reporter gene expression, n=7 stable HEK clones [8]: 45.1 nM | mean EC50, NPS-induced mobilization of intracellular Ca2+, n=16 stable clones [8]: 13 nM | EC50, CRE-luciferase reporter, transiently transfected HEK 293 cells [9]: 17.3 nM | EC50, MAPK phosphorylation, stable HEK cells [9]: 0.32 nM | EC50, cAMP formation, stable HEK clone [9]: 3.45 nM | EC50, intracellular free Ca2+, single stable HEK 293 clone [9]: 1.4 nM | mean EC50, NPS-induced CRE-luciferase reporter gene expression, n=21 stable HEK clones [9]: 0.63 nM | mean EC50, NPS-induced mobilization of intracellular Ca2+, n=21 stable clones [9]: 1.01 nM | IC50 [10]: 0.42 nM
B2: human Neuropeptide S (hNPS) (peptide)
peptide: SFRNGVGTGMKKTSFQRAKS-OH
notes: 20-residue mature peptide with free C-terminus (-OH); also called human NPS; NPS 1-20
EC50, CRE-luciferase reporter, transiently transfected HEK 293 cells [11]: 146 nM

EC50, agonist activity (Ca2+ mobilization, data not shown) [8]: 6.7 nM
Molecule: SFRNGVGTGYKKTSFQRAKS [Human Y10-NPS (unlabeled)]
